Results as given in the supplement of paper PMC7877785.
± gives the uncertainty stated by the source.

Assay: self-splicing fitness, log relative to wild type (ln ratio); higher = more splicing; Tetrahymena group I intron in knt gene, E. coli kanamycin selection, DiMSum; sequences stand for … in CUCUCU…GGAGGGAAAAGUUAUCAGGCAUGCACCUGGUAGCUAGUCUUUAAACCAAUAGAUUGCAUCGGUUUAAAAGGCAAGACCGUCAAAUUGCGGGAAAGGGGUCAACAGCCGUUCAGUACCAAGUCUCAGGGGAAACUUUGAGAUGGCCUUGCAAAGGGUAUGGUAAUAAGCUGACGGACAUGGUCCUAACCACGCAGCCAAGUCCUAAGUCAACAGAUCUUCUGUUGAUAUGGAUGCAGUUCACAGACUAAAUGUCGGUCGGGGAAGAUGUAUUCUUCUCAUAAGAUAUAGUCGGACCUCUCCUUAAUGGGAGCUAGCGGAUGAAGUGAUGCAACACUGGAGCCGCUGGGAACUAAUUUGUAUGCGAAAGUAUAUUGAUUAGUUUUGGAGUACUCGUGGUCG
In short: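 DiMSum derived fitness as the error-weighted combination of fold changes across replicates, kanamycin versus no kanamycin, normalised to wild type. E. coli BL21(DE3) held the library, which randomised all eight P1ex-region intron nucleotides within the knt kanamycin-resistance gene on pET-22b(+). Six replicate transformations grew overnight at 37°C or 30°C on LB agar with or without 25 μg/mL kanamycin, also containing 100 μg/mL carbenicillin, 50 μM IPTG and 0.2% rhamnose, and pooled colonies were amplicon-sequenced on an Illumina HiSeq 2500.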

| Sequence | self-splicing fitness (ln) (30 °C) | self-splicing fitness (ln) (37 °C) |
| --- | --- | --- |
| UAUAAGCAAUAUUACGCCAG | -0.478 ± 0.21 | -0.728 ± 0.27 |
| UAUAAGCAAUAUUACGCGGC | -3.53 ± 0.35 | -2.92 ± 0.47 |
| UAUAAGCAAUAUUACGCGUC | -3.23 ± 0.28 | -1.14 ± 0.23 |
| UAUAAGCAAUAUUACGCUGU | -2.45 ± 0.2 | -3.32 ± 0.35 |
| UAUAAGCAAUAUUACGGAGU | -3.46 ± 0.32 | -1.46 ± 0.2 |
| UAUAAGCAAUAUUACGGAUG | -0.677 ± 0.055 | -0.286 ± 0.083 |
| UAUAAGCAAUAUUACGGCGA | -0.0284 ± 0.1 | -0.427 ± 0.11 |
| UAUAAGCAAUAUUACGGCGG | 0.309 ± 0.2 | -0.0854 ± 0.25 |
| UAUAAGCAAUAUUACGGGCG | -0.413 ± 0.14 | 0.339 ± 0.17 |
| UAUAAGCAAUAUUACGGUGA | -1 ± 0.13 | -0.726 ± 0.13 |
| UAUAAGCAAUAUUACGGUGU | -2.97 ± 0.26 | -1.34 ± 0.18 |
| UAUAAGCAAUAUUACGGUUA | 0.0292 ± 0.084 | 0.311 ± 0.095 |
| UAUAAGCAAUAUUACGUAAC | -3.16 ± 0.27 | 0.142 ± 0.22 |
| UAUAAGCAAUAUUACGUGCG | -0.452 ± 0.11 | -0.00615 ± 0.17 |
| UAUAAGCAAUAUUACGUUAU | -2.58 ± 0.19 | -2.3 ± 0.28 |
| UAUCAGCAAUAUUACGACGA | -0.537 ± 0.1 | -0.425 ± 0.11 |
| UAUCAGCAAUAUUACGACGU | -1.22 ± 0.094 | -0.199 ± 0.11 |
| UAUCAGCAAUAUUACGAGAU | -3.27 ± 0.16 | -2.21 ± 0.23 |
| UAUCAGCAAUAUUACGAGGG | -2.76 ± 0.18 | -1.61 ± 0.19 |
| UAUCAGCAAUAUUACGAUAA | -0.166 ± 0.081 | -0.065 ± 0.092 |
| UAUCAGCAAUAUUACGAUUA | 0.023 ± 0.072 | 0.233 ± 0.087 |
| UAUCAGCAAUAUUACGCAGC | -2.17 ± 0.19 | -1.53 ± 0.18 |
| UAUCAGCAAUAUUACGCCCA | 0.297 ± 0.18 | 0.008 ± 0.18 |
| UAUCAGCAAUAUUACGCCGU | -1.43 ± 0.24 | 0.487 ± 0.22 |
| UAUCAGCAAUAUUACGCCUA | 0.206 ± 0.11 | 0.701 ± 0.13 |
| UAUCAGCAAUAUUACGCGAC | -3.07 ± 0.37 | -2.3 ± 0.33 |

| Sequence | self-splicing fitness (ln) (30 °C) | self-splicing fitness (ln) (37 °C) |
| --- | --- | --- |
| UAUCAGCAAUAUUACGCGUC | -2.53 ± 0.11 | -0.926 ± 0.12 |
| UAUCAGCAAUAUUACGGAAC | -1.44 ± 0.21 | – |
| UAUCAGCAAUAUUACGGAAU | -2.23 ± 0.1 | -1.27 ± 0.12 |
| UAUCAGCAAUAUUACGGACC | -2.13 ± 0.13 | -1.39 ± 0.15 |
| UAUCAGCAAUAUUACGGAUG | -1.11 ± 0.084 | 0.0808 ± 0.091 |
| UAUCAGCAAUAUUACGGCAG | -0.148 ± 0.075 | 0.0916 ± 0.089 |
| UAUCAGCAAUAUUACGGCCC | -2.13 ± 0.28 | -1.05 ± 0.39 |
| UAUCAGCAAUAUUACGGCGU | -0.864 ± 0.087 | -0.578 ± 0.087 |
| UAUCAGCAAUAUUACGGCUC | -1.86 ± 0.17 | -0.563 ± 0.18 |
| UAUCAGCAAUAUUACGGCUU | -1.03 ± 0.075 | -0.106 ± 0.11 |
| UAUCAGCAAUAUUACGGGCU | -2.72 ± 0.21 | -2.23 ± 0.3 |
| UAUCAGCAAUAUUACGGUCA | -0.435 ± 0.057 | 0.0755 ± 0.071 |
| UAUCAGCAAUAUUACGUAGG | -2.1 ± 0.097 | -1.09 ± 0.088 |
| UAUCAGCAAUAUUACGUAUC | -2.11 ± 0.08 | -0.822 ± 0.096 |
| UAUCAGCAAUAUUACGUAUG | -0.321 ± 0.042 | 0.475 ± 0.058 |
| UAUCAGCAAUAUUACGUCGA | -1.16 ± 0.1 | 0.104 ± 0.12 |
| UAUCAGCAAUAUUACGUGCU | -3.64 ± 0.21 | -2.1 ± 0.16 |
| UAUCAGCAAUAUUACGUGGA | -1.05 ± 0.098 | -0.739 ± 0.099 |
| UAUCAGCAAUAUUACGUGGU | -3.97 ± 0.2 | -0.774 ± 0.13 |
| UAUCAGCAAUAUUACGUUGC | -3.53 ± 0.18 | -2.37 ± 0.15 |
| UAUGAGCAAUAUUACGAAAG | -2.55 ± 0.39 | – |
| UAUGAGCAAUAUUACGAGCA | -2.47 ± 0.17 | -2.09 ± 0.31 |
| UAUGAGCAAUAUUACGAGUA | -2.16 ± 0.19 | -0.862 ± 0.18 |
| UAUGAGCAAUAUUACGAUCA | -2.24 ± 0.16 | -1.27 ± 0.14 |
| UAUGAGCAAUAUUACGAUCU | -1.76 ± 0.23 | -2 ± 0.31 |
| UAUGAGCAAUAUUACGAUGA | -1.41 ± 0.12 | -1.68 ± 0.16 |

| Sequence | self-splicing fitness (ln) (30 °C) | self-splicing fitness (ln) (37 °C) |
| --- | --- | --- |
| UAUGAGCAAUAUUACGAUGU | -4.02 ± 0.37 | -3.62 ± 0.46 |
| UAUGAGCAAUAUUACGCACA | -0.923 ± 0.21 | -0.282 ± 0.21 |
| UAUGAGCAAUAUUACGCGGU | -3.41 ± 0.21 | -2.68 ± 0.3 |
| UAUGAGCAAUAUUACGGACU | -3.55 ± 0.4 | -2.46 ± 0.26 |
| UAUGAGCAAUAUUACGGAGG | -3.2 ± 0.17 | -2.53 ± 0.29 |
| UAUGAGCAAUAUUACGGUAG | -1.79 ± 0.37 | -1.88 ± 0.36 |
| UAUGAGCAAUAUUACGUCAC | -4.15 ± 0.46 | -2.26 ± 0.49 |
| UAUGAGCAAUAUUACGUUCG | -1.45 ± 0.091 | -0.169 ± 0.12 |
| UAUUAGCAAUAUUACGAACA | -0.315 ± 0.16 | 0.101 ± 0.14 |
| UAUUAGCAAUAUUACGAACG | -0.156 ± 0.12 | 0.194 ± 0.14 |
| UAUUAGCAAUAUUACGAACU | -1.27 ± 0.11 | -0.806 ± 0.13 |
| UAUUAGCAAUAUUACGAGAA | – | -2.92 ± 0.47 |
| UAUUAGCAAUAUUACGAGCU | -2.63 ± 0.26 | 0.924 ± 0.21 |
| UAUUAGCAAUAUUACGAGGA | -2.33 ± 0.19 | -1.54 ± 0.18 |
| UAUUAGCAAUAUUACGAGUG | -0.139 ± 0.069 | 0.196 ± 0.087 |
| UAUUAGCAAUAUUACGAUCG | -0.211 ± 0.12 | 0.607 ± 0.18 |
| UAUUAGCAAUAUUACGCAAA | -1.67 ± 0.3 | -1.83 ± 0.27 |
| UAUUAGCAAUAUUACGCAUG | -0.961 ± 0.081 | -0.197 ± 0.11 |
| UAUUAGCAAUAUUACGCCCA | -0.378 ± 0.23 | -0.366 ± 0.3 |
| UAUUAGCAAUAUUACGCGCG | -0.142 ± 0.17 | -0.528 ± 0.17 |
| UAUUAGCAAUAUUACGCGCU | -0.731 ± 0.15 | -0.558 ± 0.18 |
| UAUUAGCAAUAUUACGCUCG | -0.476 ± 0.17 | 0.237 ± 0.2 |
| UAUUAGCAAUAUUACGGCCG | -0.0472 ± 0.19 | 0.135 ± 0.31 |
| UAUUAGCAAUAUUACGGGCG | -0.882 ± 0.076 | 0.185 ± 0.083 |
| UAUUAGCAAUAUUACGGUGA | -1.92 ± 0.12 | -1.33 ± 0.11 |
